From PMC6754406 (2019)
Where no end group is shown, it is not given here. [ ]: non-standard residue; d: D form. pS = N[C@@H](COP(=O)(O)O)C(=O)O

B4: GM130-S25D (phosphomimetic GM130 (1-85) mutant), non-tagged (domain or fragment)
chain: MSEETRQSKLAAAKKKLREYQQRNDPGVPTGAKKKKKIKNGSNPETTTSGGCHSPEDTPKDNAATLQPSDDTVLPGGVPSPGASL
B5: GM130-WT (wild type GM130 N-terminal region, a.a. 1-85), non-tagged (domain or fragment)
chain: MSEETRQSKLAAAKKKLREYQQRNSPGVPTGAKKKKKIKNGSNPETTTSGGCHSPEDTPKDNAATLQPSDDTVLPGGVPSPGASL

How the values were obtained:
[1] = molecular target: T1, Importin-α FL (full-length Importin-α), recombinant (human, UniProt P52292 1-529); assay: ITC
[2] = molecular target: Importin-β, recombinant, non-tagged (human, UniProt Q14974 1-876); assay: ITC; phospho-S25
Importin-β, recombinant, non-tagged, sequence (Q14974 whole entry): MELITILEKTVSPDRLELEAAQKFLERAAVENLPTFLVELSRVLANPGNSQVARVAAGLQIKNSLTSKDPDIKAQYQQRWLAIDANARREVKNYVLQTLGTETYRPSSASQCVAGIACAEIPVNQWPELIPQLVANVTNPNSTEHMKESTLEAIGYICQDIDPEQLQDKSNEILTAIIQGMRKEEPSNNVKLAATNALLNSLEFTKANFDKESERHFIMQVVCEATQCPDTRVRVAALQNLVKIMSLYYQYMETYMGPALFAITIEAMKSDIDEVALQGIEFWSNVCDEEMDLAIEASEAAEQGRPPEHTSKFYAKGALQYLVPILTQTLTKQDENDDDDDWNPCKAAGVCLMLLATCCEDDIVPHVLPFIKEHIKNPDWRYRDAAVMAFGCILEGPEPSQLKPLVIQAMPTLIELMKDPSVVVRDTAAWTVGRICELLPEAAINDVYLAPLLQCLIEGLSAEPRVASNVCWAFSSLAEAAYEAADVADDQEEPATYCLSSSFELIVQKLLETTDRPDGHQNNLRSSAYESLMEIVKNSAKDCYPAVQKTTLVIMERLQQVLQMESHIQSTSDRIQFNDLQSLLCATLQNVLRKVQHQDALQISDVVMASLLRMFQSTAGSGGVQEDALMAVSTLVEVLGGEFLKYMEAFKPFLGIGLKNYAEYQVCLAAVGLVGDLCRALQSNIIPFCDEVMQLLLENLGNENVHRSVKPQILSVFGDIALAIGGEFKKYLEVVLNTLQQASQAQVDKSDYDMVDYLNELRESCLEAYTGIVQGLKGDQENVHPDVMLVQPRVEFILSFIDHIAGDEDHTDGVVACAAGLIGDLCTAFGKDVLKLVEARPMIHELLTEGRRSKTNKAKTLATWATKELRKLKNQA

[3] = molecular target: T1, Importin-α FL (full-length Importin-α), …; assay: ITC; phospho-S25
[4] = molecular target: B5; assay: ITC
[5] = molecular target: B4; assay: ITC
[6] = molecular target: Importin-α(ΔIBB) (Importin-α lacking the IBB domain, a.a. 70-524) (mouse, UniProt P52293 70-524); assay: ITC; 200 mM NaCl

B1: GM130-NLS WT peptide (peptide)
chain: AKKKLREYQQRNSPGVPTGAKKKKKIK
[1]
  Kd: 6.9 µM

B2: GM130-NLS phospho-S25 (synthetic peptide with a phosphate moiety on Ser-25 of GM130, a.a. 13-40) (peptide)
chain: AKKKLREYQQRN[pS]PGVPTGAKKKKKIKN
[2]
  Kd: 270 nM
[3]
  Kd: 2100 nM

B3: p115-CTD (p115, a.a. 780-930) (domain or fragment)
chain: SARDSEQVAELKQELATLKSQLNSQSVEITKLQTEKQELLQKTEAFAKSVEVQGETETIIATKTTDVEGRLSALLQETKELKNEIKALSEERTAIKEQLDSSNSTIAILQTEKDKLELEITDSKKEQDDLLVLLADQDQKILSLKNKLKDL
[4]
  Kd: 823 nM
[5]
  Kd: 985 nM

## B4
[6]
  Kd: 227 nM

## B5
[6]
  Kd: 322 nM
